Results published in paper PMC2873526.

Assays:
[1] = biological target: PfNapS residues 29-221 (crystallised construct) (Plasmodium falciparum); assay: crystal structure; hanging drop vapour diffusion at 20°C, 0.2 M di-ammonium tartrate, 20% PEG 3350; space group P212121, three dimers in the asymmetric unit; Se-SAD at 3.2 Å, native data to 2.8 Å
histone H3 = histone H3 (UniProt P68432); assay: fluorescence spectroscopy (acrylodan-labelled PfNapS titrated with histone); settings: read off a plot

For “PfNapS residues 29-221 (crystallised construct) (domain or fragment)”, the stoichiometry N [1] was 2.
In the case of “PfNapS labelled with acrylodan (PfNapS^dye) C47A”, the response (histone H3; Histone H3 5 microgram) is reported as 0.55, the response (histone H3; Histone H3 10 microgram) is reported as 0.56 and the response (histone H3; Histone H3 15 microgram) is reported as 0.6. For the same substance, the response (histone H3; Histone H3 20 microgram) was 0.61, the response (histone H3; Histone H3 25 microgram) was 0.64 and the response (histone H3; Histone H3 30 microgram) was 0.63.
